Key:
[1] = biological target: FITC-PRDM14_(197–213) (human); assay: fluorescence polarisation
Nsp3 Ubl1 (SARS-CoV-2) = Nsp3 Ubl1 (SARS-CoV-2) (UniProt P0DTD1); assay: fluorescence polarisation

Row | Substance | fold reduction of affinity against wild-type Nsp3 SUD-M [1] [fold] | fold lower affinity than NCOA2 (1074–1089) (Nsp3 Ubl1 (SARS-CoV-2)) [fold]
1 | Nsp3 SUD-M A1397E, V1453K, S1478D (from UniProt P0DTD1 819-2763) (domain or fragment) | 100 | –
2 | Y to V mutant of the NCOA2_(1074–1089) peptide (from UniProt Q15596 1074-1089) | – | 20
